Data taken from the supplement of paper PMC6755084.

B1: minF1; a variant is named by its letters at N, in order (parent)
chain: GAGACCGCAACTGAAAAGTTGTTNNNNAANNNNGGNTNNATTTCTGCACGTAGAAGCAAAAGGC

Variants of: B1
Assay: fraction ligated after 30 min (ligated reads / total reads); higher = more ligase activity
Details: with F1*subA RNA substrate (template-directed ligation), 42 °C
Procedure: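 Chip-synthesised pool of minF1 ligase ribozyme variants (single and double substitutions, single to quadruple deletions, bulge and P2 designed variants) was transcribed with T7 and reacted as a pool with excess substrate F1*subA for 30 min at 42 C in 50 mM EPPS pH 8.5, 25 mM MgCl2. Ligated and unligated RNAs were separated by PAGE, barcoded by RT and deep sequenced; fraction ligated = ligated reads / total reads, relative activity = FL / FL of wild-type minF1 (0.76); sequencing FL correlated with PAGE (R2 = 0.98). Sequences are the DNA template of the ribozyme.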

First: ACAGTGGAGTG
Second: ACAGTGGAGTA
The fraction ligated of the first is higher: 0.00883 for the first, 0.00375 for the second.

First: TCGAGGATGTG
Second: TCGAGGATGTA
The fraction ligated of the first is higher: 0.00804 for the first, 0.00168 for the second.

Compared with TCAGAGGAGTT T23A G34T T37G A40G, CGAAGATGTGA A28T A29G is higher in fraction ligated: 0.000303 for the first, 0.00384 for the second.

Going from TCAGGATGTGA T23A A28T A29G to TCGAGATGTGA, the fraction ligated rises from 0.00354 to 0.0048.

Going from TCAGAGAGTGA T23A to ACAGGGATGTA A29T, the fraction ligated rises from 0.0017 to 0.00654.

Going from TCAGTGTGTGA to TCAGATGTTGA, the fraction ligated falls from 0.00218 to 0.0015.

First: TCAGGGAGTGA A29T
Second: TCAGATGAGTT G34T T37G
The fraction ligated of the first is higher: 0.00242 for the first, 0.0017 for the second.

Going from TCAGGGATTGA to TCAGGATGTGA T23A, the fraction ligated rises from 0.00138 to 0.00221.

Going from ACAGAGAGTGA to TCGAGGATGTA A29T, the fraction ligated rises from 0.00105 to 0.00472.

First: TCAGAGATTGA T23A
Second: ACAGTGGAGTT G34T T37G A40G
The fraction ligated of the first is higher: 0.00203 for the first, 0.00141 for the second.

First: ACAATGTGTGA
Second: TCGATGGGTGA
The fraction ligated of the first is lower: 0.00146 for the first, 0.00376 for the second.

Going from TCAGTGGATGA T23A to TCAGAGTGTGA T23A, the fraction ligated rises from 0.00222 to 0.00281.

Going from ACGATGGATGA to TCGATGGTGTA T23A, the fraction ligated rises from 0.0034 to 0.00392.

First: ACGATATGTGA
Second: ACAGTGATTGA
The fraction ligated of the first is lower: 0.00174 for the first, 0.00326 for the second.

First: TCAGATGGGTA T23A G34A
Second: TCAGATGGGTA T23A G34T
The fraction ligated of the first is lower: 0.0017 for the first, 0.00312 for the second.

First: TCGAGGATGTA T23A A29T
Second: TCAGGGATTGA T23A
The fraction ligated of the first is higher: 0.00462 for the first, 0.000376 for the second.

Compared with TCGATGGTTGA T23A, ACAGTGGGTGA is higher in fraction ligated: 0.00216 for the first, 0.00475 for the second.

Going from TCGATGATGTA to TCGATGATGTG, the fraction ligated rises from 0.00391 to 0.00893.

Going from ACGATGAGTGA to TCAGGGATGTA T23A, the fraction ligated falls from 0.0021 to 0.00201.

First: TCAGTGGAGTT T23A G34T T37G A40G
Second: TCAGAGATTGA
The fraction ligated of the first is lower: 0.000501 for the first, 0.00355 for the second.

Compared with TCAGGATGTGA T23A A29G, TCAGGATGTGA T23A A29T is lower in fraction ligated: 0.00232 for the first, 0.00222 for the second.

Compared with TCGATGGTGTG T23A, TCGAGATGTGA A28T A29G is higher in fraction ligated: 0.00391 for the first, 0.00721 for the second.

First: ACGATGGAGTG
Second: ACGATGGAGTA
The fraction ligated of the first is higher: 0.0132 for the first, 0.00344 for the second.

Going from ACAGTATGTGA to ACAGATGTGTG, the fraction ligated rises from 0.00319 to 0.0127.

First: ACAGATGTGTA
Second: ACAGGGATGTG
The fraction ligated of the first is lower: 0.00227 for the first, 0.00506 for the second.

Going from ACAGGGATGTA to TCAGAATGTGA, the fraction ligated rises from 0.00263 to 0.00302.

Compared with TCGATGGAGTT G34T T37G A40G, TCGATGATTGA T23A is higher in fraction ligated: 0.000433 for the first, 0.00304 for the second.

Going from TCAGTGAGTGA T23A to TCAGATGGGTG G34T, the fraction ligated falls from 0.0046 to 0.00277.

First: TCAGATGGGTG G34A
Second: TCAGATAGTGA
The fraction ligated of the first is higher: 0.00479 for the first, 0.00299 for the second.

First: TCAGGGTGTGA T23A
Second: ACAGAGGAGTT G34T T37G
The fraction ligated of the first is lower: 0.00148 for the first, 0.00192 for the second.

First: TCGAGATGTGA T23A A29G
Second: TCGAGATGTGA T23A A29T
The fraction ligated of the first is higher: 0.00586 for the first, 0.00198 for the second.

Compared with TCAGAGGTGTA T23A, ACAGAGGAGTT G34T T37G A40G is lower in fraction ligated: 0.00248 for the first, 0.00205 for the second.

Going from TCAATGTGTGA T23A to ACGAGATGTGA A28T A29G, the fraction ligated rises from 0.00162 to 0.00619.

First: TCAGGGATGTG A29T
Second: TCAGGGAGTGA T23A
The fraction ligated of the first is lower: 0.00266 for the first, 0.0029 for the second.

Compared with TCGAGATGTGA T23A, TCAGATGAGTA T23A G34T is lower in fraction ligated: 0.00396 for the first, 0.00285 for the second.

First: TCAGTGGAGTG T23A G34T
Second: TCAGTGGAGTA G34T
The fraction ligated of the first is higher: 0.0406 for the first, 0.00892 for the second.

Going from TCAGATGAGTG T23A G34T to ACAGTGATGTA, the fraction ligated falls from 0.00649 to 0.00194.

Going from ACAGTGATGTG to ACGATGGAGTG G34T, the fraction ligated rises from 0.00312 to 0.156.

First: TCAGTGATGTG
Second: TCAGTGATGTA
The fraction ligated of the first is higher: 0.00561 for the first, 0.000465 for the second.

First: TCAGATGTTGA T23A
Second: TCAGTGGTGTA T23A
The fraction ligated of the first is higher: 0.00154 for the first, 0.00153 for the second.

Going from ACAGAGATGTG to ACAGAGATGTA, the fraction ligated falls from 0.00764 to 0.00268.

First: TCGATATGTGA
Second: ACGATGGAGTA G34T
The fraction ligated of the first is lower: 0.00214 for the first, 0.0869 for the second.

Going from TCAGATTGTGA T23A to ACAGAGGATGA, the fraction ligated rises from 0.00184 to 0.00191.

Going from TCAGATGGGTT G34T T37G A40G to TCAGATGAGTA G34T, the fraction ligated rises from 0.000744 to 0.00143.

Compared with TCAGATGAGTA T23A, TCAGGGAGTGA is higher in fraction ligated: 0.00194 for the first, 0.00359 for the second.

Going from TCAGAGGTTGA T23A to ACAGATGGGTT G34A G35T T37G A40G, the fraction ligated falls from 0.000867 to 0.000584.

Compared with TCAGGATGTGA A29T, TCAGGATGTGA A29G is lower in fraction ligated: 0.00155 for the first, 0.00144 for the second.

Going from TCAGATAGTGA T23A to TCAGATGGGTT G34T T37G, the fraction ligated falls from 0.00511 to 0.00104.

Compared with ACAGTGTGTGA, ACAGATGAGTT G34T T37G is lower in fraction ligated: 0.00188 for the first, 0.000925 for the second.

First: TCAGTGGGTGA
Second: TCAGAGGAGTT G34T T37G A40G
The fraction ligated of the first is higher: 0.00233 for the first, 0.000453 for the second.

Going from ACAGAGATTGA to ACGAGGATGTG A29T, the fraction ligated rises from 0.00246 to 0.0152.

First: TCGATGGATGA T23A
Second: ACAGATATTGA
The fraction ligated of the first is higher: 0.00236 for the first, 0.0012 for the second.

Compared with TCGATGGAGTA T23A G34T, TCGAGGATTGA T23A A29T is lower in fraction ligated: 0.139 for the first, 0.00747 for the second.

First: TCAGAATGTGA T23A
Second: TCAGATGTGTA T23A
The fraction ligated of the first is higher: 0.00396 for the first, 0.00304 for the second.

Compared with ACAGATGAGTG, ACAGATGAGTA is higher in fraction ligated: 0.00387 for the first, 0.00413 for the second.

First: ACAGATGAGTG G34T
Second: TCGAGGAGTGA A29T
The fraction ligated of the first is higher: 0.00398 for the first, 0.00284 for the second.

First: ACAGTGGTGTA
Second: ACAGTGGTGTG
The fraction ligated of the first is lower: 0.000648 for the first, 0.00543 for the second.

Going from ACAGATGGGTT G34T T37G to ACAGATGGGTT G34A T37G, the fraction ligated falls from 0.0016 to 0.00125.

First: TCAGAGGAGTA T23A
Second: ACAATGGTTGA
The fraction ligated of the first is higher: 0.00164 for the first, 0.00142 for the second.

First: TCGAGGAGTGA T23A
Second: ACGAGGATGTA A29T
The fraction ligated of the first is lower: 0.00431 for the first, 0.00647 for the second.

Going from TCAGGGTGTGA to TCGAGGATTGA, the fraction ligated rises from 0.00203 to 0.00327.

First: TCAGTGGAGTA T23A G34T
Second: TCAGATATGTA T23A
The fraction ligated of the first is higher: 0.0212 for the first, 0.00212 for the second.

Compared with ACAGATGGGTA, ACAGATGGGTG is higher in fraction ligated: 0.00187 for the first, 0.00567 for the second.

First: ACAGATGATGA
Second: ACAGTGAGTGA
The fraction ligated of the first is lower: 0.00115 for the first, 0.00274 for the second.

Compared with ACAGATAGTGA, ACAGGATGTGA A28T A29G is lower in fraction ligated: 0.00391 for the first, 0.0031 for the second.

Going from TCAGAGTGTGA to TCAGGGAGTGA T23A A29T, the fraction ligated falls from 0.00219 to 0.000582.

Compared with ACAGGGATTGA, ACAGATGGGTA G34A is higher in fraction ligated: 0.00266 for the first, 0.00284 for the second.

Compared with ACAGATGGGTA G34T, TCAGAGGAGTG G34T is higher in fraction ligated: 0.00288 for the first, 0.00594 for the second.

First: ACAGATGAGTT G34T T37G A40G
Second: TCAGGGTGTGA T23A A29T
The fraction ligated of the first is lower: 0.00147 for the first, 0.00472 for the second.

Going from ACAGATGGGTT G34T T37G A40G to TCGAGGATGTA T23A, the fraction ligated rises from 0.00113 to 0.0024.

Compared with TCAGATGGTGA, TCAGATGGGTT T23A G34T T37G is lower in fraction ligated: 0.00356 for the first, 0.00101 for the second.

Compared with ACGATGGTGTG, ACGATGGTGTA is lower in fraction ligated: 0.00433 for the first, 0.00204 for the second.

First: TCGATGATGTA T23A
Second: ACAGGGTGTGA A29T
The fraction ligated of the first is higher: 0.00263 for the first, 0.000904 for the second.

First: TCAGGGTGTGA A29T
Second: TCAGTGGAGTT T23A G34T T37G
The fraction ligated of the first is higher: 0.00272 for the first, 0.00183 for the second.

Compared with ACAGGATGTGA, ACAGATGGTGA is higher in fraction ligated: 0.00342 for the first, 0.00375 for the second.

Compared with ACAGTGGATGA, TCAGTGAGTGA is higher in fraction ligated: 0.00257 for the first, 0.00311 for the second.

Going from AGAAGATGTGA A29G to TCGATGGAGTG T23A, the fraction ligated rises from 0.00203 to 0.02.

Compared with ACGATGGAGTT G34T T37G A40G, TCAGTGGAGTG G34T is higher in fraction ligated: 0.00103 for the first, 0.0219 for the second.

First: ACAGATGGGTG G34T
Second: ACAGATGGGTG G34A
The fraction ligated of the first is lower: 0.00406 for the first, 0.0045 for the second.

Compared with TCAGAGGAGTA T23A G34T, TCAATGGTTGA T23A is higher in fraction ligated: 0.0014 for the first, 0.00285 for the second.

First: TCAGTATGTGA
Second: ACAGAATGTGA
The fraction ligated of the first is higher: 0.00458 for the first, 0.00222 for the second.

First: TCGATGGAGTG G34T
Second: TCAGAGGTTGA
The fraction ligated of the first is higher: 0.253 for the first, 0.00136 for the second.

Compared with TCGATGGGTGA T23A, TGAAGATGTGA A29G is higher in fraction ligated: 0.000539 for the first, 0.00286 for the second.

For TCGAGGATGTG A29T, the fraction ligated was 0.0133.
